Test results: the DeepSol protein solubility set

Assay: soluble on expression in E. coli; label from the status in PepcDB or PDB records

Sequence | soluble on expression in E. coli
MSPPSTIAYVLPPGFKFVPNDEEVIHCYLKPYSDGNTNVLLHVPIHLVNIYESNPQTLSEEFQKGNDKEWFIITERNKVDQGLSQTKRVGYGAKRQKRVDTNGGYWHATVAAQKINAGDGVVRNKRPLAYYVGKPSEGVKTDWLMQEYSLDHSSHNNDKDYTLCKIYLTPQATKMNKEVGEEKKKQKKGEAVVSVAPVEALEEQLPCNVEYHQPLAPLDSCQPQPHDLAYQQQQFCPGPLDSYQPQPHDMENQQPHNEKLKKEEDVEQLDLHQPDQGKGC | not soluble
MSLFFIYDFAMIMQFNSRYSDLNAKLYHQQAPVPLKGAKAGHFNEAIADELQWTSQEKQSWVDICSGQKTFDAFKPLAMVYAGHQFGQWAGQLGDGRGLLIGQVLHRSGQTIDLHLKGAGLTPYSRMGDGRAVLRSVIREYLAGHALNSLRVASSNAIGFTTSEQGVQRETLEQGAMLLRTSDCHIRLGHFEWINQYAPELLAEFTQKCIEWHYPEALQAEHPILAFAEGVIKNTAKMIADWQLVGFAHGVMNTDNLNITGSTLDFGPYGFMERFRPNWINNHSDHQGRYAYQNQPSIAHWNLWIWLNNLIPLSKPEDKETFKKQLADCLEHFEPTFLTAYTEGLCKKLGLPDFHKDSFDCGMAFLKVLQSEQLDYTQSFLRLQNHDYKALRDDCLDTRQFDDFLNLYHQIREHQDITALDQTMCDVNPVYILRNHMAQQAIEQAERGDFSEVERLFTLLAKPFTRQPALEKEQDLAPLPSDVPEIMVSCSSEGHHHHHH | not soluble
LLKEYKNAWDKYDDKQLKEVFALGDRFKNFISNCKTERECVTELIKTAEKSGYRNIEDILAKGETLKEGDKVYANNRGKGLIMFLIGKEPLYTGFKILGAHIDSPRLDLKQNPLYEDTDLAMLETHYYGGIKKYQWVTLPLAIHGVIVKKDGTIVNVCVGEDDNDPVFGVSDILVHLASEQLEKKASKVIEGEDLNILIGSIPLKDGEEKQKVKHNIMKILNEKYDISEEDFVSAELEIVPAGKARDYGFDRSMVMGYGQDDRICAYTSFEAMLEMKNAKKTCITILVDKEEVGSIGATGMQSKFFENTVADIMSLCGDYDELKLRKALYNSEMLSSDVSAAFDPNYPNVMEKRNSAYLGKGIVFNKYTGSRGKSGCNDANPEYIAELRRILSKESVNWQTAELGKVDQGGGGTIAYILAEYGMQVIDCGVALLNMHAPWEISSKADIYETKNGYSAFLNN | soluble
MDLEAPPTLLQLAAQCTVRKEVLTISVLQNLPMKLFPPLFKEADILRKAKMIKLLVEYWPYPSLLVGLLIDKTNLETFQAILEGVGTWLKRKYRPRMGKLQVVDLRNGHHDFWDMLAGREGGDQLVETMPEKQEVEGHSRRQRLRVFSDLSFKSSRHEDKQQTHLLQWAKDREGFLHLCCEKLEIGALGVSKVKKVLKLLQPEFIKELELNTVGNLSKLTKLVPCISKMRNLQKLMLVRIFGRHTYTPLEERNVTKILSLFPKLSYLQHLTIDDVYFLRDHMNELFRYLEAPLLSLTITLCQISQSDLESFSQHWNYGQLKHLCLKGVSLSTLNVTPLKFFLESVADTLQTLELEDCRMKDSHLRILLPALTKCTRLTSINFYDNNISRDVLQDLLHRTANMSQLTMELYPAPVEVYNEWSYVQVERFSQLCAELMNTLITVRRPKSVCFGTYSCYDCDTHCIYGNQTTFCECLE | not soluble
NTKPENDLERAKRKNERAKARCVGITFETRPDYAREEHIREMLRFGGTKVELGVQSLYDDVLERIKRGHGVKEVAEATRLLRDSAFKVGYHIMPGLPGSSFERDLRMFRELFENDSFKPDYLKIYPTLVVEGTELYEMWKRGEYEPYTTEEVVELIVMAKRRFPE | not soluble
